Data published in patent publication US20070077239A1 (BOARD OF TRUSTEES OF THE UNIVERSITY OF ILLINOIS, published 2007).
Ends that are not written are not given here.

Columns and labels:
[1] = biological target: T1, human serum albumin (human, UniProt P02768 25-609); assay: HSA-Sepharose affinity chromatography of human lung extract, elution at pH 4.0, SDS-PAGE, MALDI-MS
T1 construct: also called HSA
Description: Protein purification and MALDI-MS: Human lung tissue (180 g) was washed, minced, and homogenized with 20 volumes of buffer A (20 mM Hepes/Tris/0.15 M NaCl/0.1 mM phenylmethylsufonylfluoride [PMSF]/30 pM benzamidine [BM], pH 7.4). The homogenate was centrifuged at 1000×g for 10 min and the supernatant was centrifuged at 100,000×g for 60 min. The pellet obtained was solubilized using 2.5% sodium cholate and 4 M urea (Tiruppathi et al., Proc. Natl. Acad Sci. USA, 93:250-254 (1996)). The solubilized extract was concentrated by ethanol precipitation and re-extracted with Triton X- 100 (Tiruppathi et al., Proc. Natl. Acad Sci. USA, 93:250-254 (1996)). The Triton X-100 concentration in the extract was adjusted to 0.2% and applied on HSAsepharose column (1×10 cm) pre-equilibrated with buffer-B (10 MM Tris-HCl, 0.5 MM EDTA, pH 7.4 containing 0.1 mM PMSF, 30 [M BM, and 0.2% Triton X-100). The column was washed and bound proteins were eluted with 20 ml of 0.1 M citrate buffer pH 4.0 containing 0.2% Triton X- 100. The proteins eluted were separated on SDS-PAGE, stained with Coomassie Brilliant Blue R-250 (CBBR-250) (FIG. 1A). The protein bands excised were digested with trypsin and peptides were analyzed using MALDI-MS at Yale University Biotechnology Resource Laboratory (New Haven, Conn.). The peptide masses were compared with known sequence using Profound search analysis on OWL database. […]

[2] = biological target: T1, human serum albumin; assay: dot-blot, 1.0 nmoles peptide per filter on nitrocellulose, 0.3 µM 125I-HSA, 2 h
Description: (§1) Peptides were immobilized on nitrocellulose membranes and non-specific binding was blocked with bovine γ-globulin (2 mg/ml in PBS) for 1 h at 22° C. Membranes were washed 2× with PBS and incubated with ¹²⁵I-labeled HSA ([…]) for 2 h at 22° C. Membranes were then washed 4× with PBS containing 0.05% Tween-20 (PBST) and autoradiography was performed. In some experiments, the membranes were directly counted to determine the membrane-associated radioactivity.
(§2) Peptides were immobilized on nitrocellulose membranes and then incubated with 1 ml of 0.3 μM ¹²⁵I-HSA in PBS for 2 h. Other details were described in Example 1. Non-specific binding was determined by incubating membranes with ¹²⁵I-HSA in the absence of any peptides. Results are shown mean±S.E. for three separate experiments made in triplicate.

[3] = biological target: T1, human serum albumin; assay: dot-blot, 5.0 nmoles peptide per filter on nitrocellulose, 0.3 µM 125I-HSA, 2 h
Description: as §1, §2

[4] = biological target: T1, human serum albumin; assay: dot-blot, 2.5 nmoles peptide per filter on nitrocellulose, 0.3 µM 125I-HSA, 2 h
Description: as §1, §2

[5] = biological target: T1, human serum albumin; assay: dot-blot, 10.0 nmoles peptide per filter on nitrocellulose, 0.3 µM 125I-HSA, 2 h
Description: as §1, §2

[6] = biological target: T1, human serum albumin; assay: 125I-HSA dot-blot on peptide immobilised on nitrocellulose
Description: as §1, §2

[7] = biological target: T2, rat serum albumin (rat, UniProt P02770 25-608); assay: binding of albumin to the immobilised peptide; details not given
T2 construct: also called RSA
T2 sequence (P02770 25-608 limits assumed): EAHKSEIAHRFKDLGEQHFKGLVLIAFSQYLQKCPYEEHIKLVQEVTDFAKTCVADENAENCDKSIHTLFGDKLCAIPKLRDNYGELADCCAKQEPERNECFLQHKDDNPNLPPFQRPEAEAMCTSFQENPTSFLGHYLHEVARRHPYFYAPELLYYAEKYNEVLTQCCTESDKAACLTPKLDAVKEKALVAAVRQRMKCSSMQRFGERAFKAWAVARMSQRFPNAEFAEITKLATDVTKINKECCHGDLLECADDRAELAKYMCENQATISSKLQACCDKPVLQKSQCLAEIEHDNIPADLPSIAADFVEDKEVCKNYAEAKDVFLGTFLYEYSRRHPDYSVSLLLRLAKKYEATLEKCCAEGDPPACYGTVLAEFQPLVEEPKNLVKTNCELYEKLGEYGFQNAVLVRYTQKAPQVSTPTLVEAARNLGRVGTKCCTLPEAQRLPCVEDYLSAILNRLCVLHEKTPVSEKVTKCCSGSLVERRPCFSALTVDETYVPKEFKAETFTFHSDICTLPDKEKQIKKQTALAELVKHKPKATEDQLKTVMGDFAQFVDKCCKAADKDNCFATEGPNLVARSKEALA

Binder | binding result [1] | 125I-HSA bound (pmoles/filter) [2] [pmoles/filter] | 125I-HSA bound (pmoles/filter) [3] [pmoles/filter] | 125I-HSA bound (pmoles/filter) [4] [pmoles/filter] | 125I-HSA bound (pmoles/filter) [5] [pmoles/filter] | binding result [6] | binding result [7]
MPO-HC (60 kDa protein isolated from human lung tissue) (enzyme, UniProt P05164 279-745, looked up, domain: heavy chain (HC); also called MPO heavy chain) VNCETSCVQQPPCFPLKIPPNDPRIKNQADCIPFFRSCPACPGSNITIRNQINALTSFVDASMVYGSEEPLARNLRNMSNQLGLLAVNQRFQDNGRALLPFDNLHDDPCLLTNRSARIPCFLAGDTRSSEMPELTSMHTLLLREHNRLATELKSLNPRWDGERLYQEARKIVGAMVQIITYRDYLPLVLGPTAMRKYLPTYRSYNDSVDPRIANVFTNAFRYGHTLIQPFMFRLDNRYQPMEPNPRVPLSRVFFASWRVVLEGGIDPILRGLMATPAKLNRQNQIAVDEIRERLFEQVMRIGLDLPALNMQRSRDHGLPGYNAWRRFCGLPQPETVGQLGTVLRNLKLARKLMEQYGTPNNIDIWMGGVSEPLKRKGRVGPLLACIIGTQFRKLRDGDRFWWENEGVFSMQQRQALAQISLPRIICDNTGITTVSKNNIFMSNSYPRDFVNCSTLPALNLASWREAS | binds | – | – | – | – | – | –
EARKIV-NH2 (Synthetic hexapeptide from MPO-HC; also called EARKIV motif) [EARKIV peptide] | – | 0.05 | 0.08 | 0.06 | 0.11 | no binding | –
GLATELGSLNPGWDGEGLYQEAGGIVGAMV-NH2 [MPO-MT-peptide] | – | 0.01 | 0.14 | 0.11 | 0.19 | no binding | –
MPO-WT-peptide (MPO-HC sequence 425-454) (C-terminal amide, Immobilised on nitrocellulose in the dot-blot; also called ADS) peptide: not shown | – | 0.31 | 2.93 | 1.45 | 6.55 | – | binds
